Values quoted from earlier work, collected in article PMC12694644.

Molecular target: IL-23 p19 (Homo sapiens) (UniProt Q9NPF7)
Sequence (Q9NPF7 20-189): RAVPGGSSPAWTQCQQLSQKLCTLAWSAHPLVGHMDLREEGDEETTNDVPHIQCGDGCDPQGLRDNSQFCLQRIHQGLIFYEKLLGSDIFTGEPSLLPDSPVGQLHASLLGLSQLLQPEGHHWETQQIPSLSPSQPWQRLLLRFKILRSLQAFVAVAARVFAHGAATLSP

Kd: 3.3 pM
Substance: Guselkumab
